Results taken from patent publication US20160090605A1 (ACADEMIA SINICA, published 2016).

T1: ER-body protein NAI2 (Arabidopsis, UniProt Q9LSB4 25-772, limits assumed)
T1 construct: also called AT3G15950
T1 sequence: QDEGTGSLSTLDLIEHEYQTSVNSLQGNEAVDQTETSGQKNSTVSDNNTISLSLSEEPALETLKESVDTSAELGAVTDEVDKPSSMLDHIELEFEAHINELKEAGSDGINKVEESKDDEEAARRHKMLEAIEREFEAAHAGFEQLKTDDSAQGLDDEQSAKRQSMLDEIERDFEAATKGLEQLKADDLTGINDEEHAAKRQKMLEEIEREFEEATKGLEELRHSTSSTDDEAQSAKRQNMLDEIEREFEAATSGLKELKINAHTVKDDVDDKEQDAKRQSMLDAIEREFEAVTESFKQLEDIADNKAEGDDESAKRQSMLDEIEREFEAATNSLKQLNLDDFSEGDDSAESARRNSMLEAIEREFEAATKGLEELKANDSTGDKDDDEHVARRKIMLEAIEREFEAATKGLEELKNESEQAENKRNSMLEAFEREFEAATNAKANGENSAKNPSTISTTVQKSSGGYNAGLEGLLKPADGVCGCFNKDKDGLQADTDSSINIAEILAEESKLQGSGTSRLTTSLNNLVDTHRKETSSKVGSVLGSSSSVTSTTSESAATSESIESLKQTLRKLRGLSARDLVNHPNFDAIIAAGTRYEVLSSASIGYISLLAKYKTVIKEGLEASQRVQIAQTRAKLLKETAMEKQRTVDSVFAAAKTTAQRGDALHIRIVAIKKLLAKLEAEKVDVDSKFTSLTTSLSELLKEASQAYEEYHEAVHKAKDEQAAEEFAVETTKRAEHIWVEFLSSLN

B1: AFL1 N-terminal fragment (amino acids 1 to 208) (other)
chain: MALSKDLMLKCSEDMMSAYKSACEEHPKLKSFDASLQQRTNKMIDSLTVEDKNGSSSPHDAHMELSKHLVEVTQGVADFITEIEDDVWDNQALKYLVLAYFENTKKTLEIFKTIENCVENAEMGQLLIREALAEFEKESAEKDVGGKKKKYEKTLEDLKSFKEMGDPFDGKVLTTQFERIKKQQESLLEEVSETRKKIQDEISNLEKK
notes: Yeast two hybrid bait in a ProQuest destination vector (printed as pDEST23); also called AFL1 N-terminus; N-terminal domain of AFL1
B2: At14a-like1 (AFL1), full length (other)
chain: MALSKDLMLKCSEDMMSAYKSACEEHPKLKSFDASLQQRTNKMIDSLTVEDKNGSSSPHDAHMELSKHLVEVTQGVADFITEIEDDVWDNQALKYLVLAYFENTKKTLEIFKTIENCVENAEMGQLLIREALAEFEKESAEKDVGGKKKKYEKTLEDLKSFKEMGDPFDGKVLTTQFERIKKQQESLLEEVSETRKKIQDEISNLEKKTLITNVVFGAAFAIVAVASIALIATGVGAAAGFGALAAPLLAAGWAGVYTTLDKKKDALNKQLEGLKKVEEIEESVEKGIKTNEEATETVSILVDGLEDRIKNMLKLVDNAIDHEDNEAATRIVLTQISKKVEKLTKKITEVGESVEDHSKLIAKARLQVLQKINR
notes: Full-length AFL1; In mbSUS it was a split-ubiquitin fusion expressed in yeast; In BiFC it was a fusion to a YFP half (YFPN or YFPC, the latter MYC-tagged); This entry also stands for native AFL1 in seedling extracts (47 kDa band; co-purified with YFP-AFL1); also called AT3G28270; Full Length AFL1

Columns and labels:
ER-body protein NAI2 = target: T1, ER-body protein NAI2; assay: yeast two hybrid library screen (AFL1 N-terminus)
Description: A yeast two hybrid library was prepared using mRNA from seedlings exposed to −1.2 MPa low water potential stress for 96 h. The library was prepared using the Cloneminer II cDNA construction (Invitrogen) according to the manufacturer's instructions. Yeast two hybrid screening was performed using the ProQuest Two-hybrid system (Invitrogen) following manufacturer's instructions with an N-terminal fragment of AFL1 (amino acids 1 to 208) as bait. The bait fragment was cloned into destination vector pDEST23 and co-transformed into MaV203 along with clones from the cDNA library using LiAc X transformation. […] Colonies that grew on the selective media were re-streaked and subjected to β-galactosidase filter assay to confirm interaction. Out of approximately 8×10⁵ colony forming units screened, clones of PDI5, NAI2, and TSA1 were detected repeatedly. Most of these clones were C-terminal truncations. Full length cDNA clones of PDI5, NAI2 and TSA1 were obtained (using the cloning procedures described above) and confirmed to interact with the AFL1 bait construct in β-galactosidase filter assays.

[1] = target: the molecule itself; assay: mbSUS split-ubiquitin interaction assay, full length AFL1 with itself
Description: Mating-based Split-Ubiquitin System (mbSUS) assays were performed as previously described using vectors and yeast strains obtained from the Arabidopsis Biological Resource Center. Full length AFL1 as well as putative interactors were expressed in yeast strains THY.AP4 and THY.AP5, respectively, by recombinational in vivo cloning and plated on SC-Leu-Met or SC-Trp-Ura-Met (SC/+AHL) plates for selection. The interaction was tested by X-gal agarose overlay assay.

| Binder | binding result (ER-body protein NAI2) | binding result [1] |
| --- | --- | --- |
| B1 | binds | – |
| B2 | – | binds |
